B1: AMOTL2 peptide 66-81 (Angiomotin-like protein 2), 16-mer library wild type / TNKS ANK (TNKS 12 ANK repeats, residues 174-649) (parent complex)
chain 1: LQQATRQEPQGQEHQG
chain 2: TGVPAVSGALRELLEACRNGDVSRVKRLVDAANVNAKDMAGRKSSPLHFAAGFGRKDVVEHLLQMGANVHARDDGGLIPLHNACSFGHAEVVSLLLCQGADPNARDNWNYTPLHEAAIKGKIDVCIVLLQHGADPNIRNTDGKSALDLADPSAKAVLTGEYKKDELLEAARSGNEEKLMALLTPLNVNCHASDGRKSTPLHLAAGYNRVRIVQLLLQHGADVHAKDKGGLVPLHNACSYGHYEVTELLLKHGACVNAMDLWQFTPLHEAASKNRVEVCSLLLSHGADPTLVNCHGKSAVDMAPTPELRERLTYEFKGHSLLQAAREADLAKVKKTLALEIINFKQPQSHETALHCAVASLHPKRKQVTELLLRKGANVNEKNKDFMTPLHVAAERAHNDVMEVLHKHGAKMNALDTLGQTALHRAALAGHLQTCRLLLSYGSDPSIISLQGFTAAQMGNEAVQQILSESTPIRTSD
B2: AMOTL2 peptide 64-79 (Angiomotin-like protein 2), 16-mer library wild type / TNKS ANK (TNKS 12 ANK repeats, residues 174-649) (parent complex)
chain 1: QVLQQATRQEPQGQEH
chain 2: B1 chain 2

Variants of: B1
Assay: proteomic peptide phage display deep mutational scan (ProP-PD DMS): M13 P8 16-mer library selected against immobilised GST-tagged bait for four days (rounds), NGS of the eluted pools per day and pseudo-replica; bait immobilised on MaxiSorp plates (10 µg), library pre-cleared on GST, 2 h binding at 4 °C, five washes; one round per day, days 1-4; value from days 2 and 3
In the case of chain 1 T5D, the screen value is reported as 0.000166 average fractional NGS count over selection days 2 and 3 (reads of this peptide / all reads for the bait, averaged over ….
For chain 1 T5W, the screen value was 0.000715 average fractional NGS count over selection days 2 and 3 (reads of this peptide / all reads for the bait, averaged over ….
For chain 1 T5G, the screen value was 0.000124 average fractional NGS count over selection days 2 and 3 (reads of this peptide / all reads for the bait, averaged over ….
For chain 1 T5H, the screen value was 0.00114 average fractional NGS count over selection days 2 and 3 (reads of this peptide / all reads for the bait, averaged over ….
For chain 1 T5L, the screen value was 0.00104 average fractional NGS count over selection days 2 and 3 (reads of this peptide / all reads for the bait, averaged over ….
In the case of chain 1 T5V, the screen value is reported as 0.00996 average fractional NGS count over selection days 2 and 3 (reads of this peptide / all reads for the bait, averaged over ….
In the case of chain 1 T5M, the screen value is reported as 0.000134 average fractional NGS count over selection days 2 and 3 (reads of this peptide / all reads for the bait, averaged over ….
chain 1 T5Y was tested, and the screen value was 0.00023 average fractional NGS count over selection days 2 and 3 (reads of this peptide / all reads for the bait, averaged over ….
chain 1 T5F was tested, and the screen value was 0.00053 average fractional NGS count over selection days 2 and 3 (reads of this peptide / all reads for the bait, averaged over ….
For chain 1 T5Q, the screen value was 0.00116 average fractional NGS count over selection days 2 and 3 (reads of this peptide / all reads for the bait, averaged over ….
With chain 1 Q10Y the screen value was 0.00045 average fractional NGS count over selection days 2 and 3 (reads of this peptide / all reads for the bait, averaged over ….
In the case of chain 1 Q10E, the screen value is reported as 0.000182 average fractional NGS count over selection days 2 and 3 (reads of this peptide / all reads for the bait, averaged over ….
With chain 1 Q10H the screen value was 0.000277 average fractional NGS count over selection days 2 and 3 (reads of this peptide / all reads for the bait, averaged over ….
With chain 1 Q10S the screen value was 0.000273 average fractional NGS count over selection days 2 and 3 (reads of this peptide / all reads for the bait, averaged over ….
With chain 1 Q10W the screen value was 0.000745 average fractional NGS count over selection days 2 and 3 (reads of this peptide / all reads for the bait, averaged over ….
With chain 1 Q10L the screen value was 0.00347 average fractional NGS count over selection days 2 and 3 (reads of this peptide / all reads for the bait, averaged over ….
With chain 1 Q10I the screen value was 0.000713 average fractional NGS count over selection days 2 and 3 (reads of this peptide / all reads for the bait, averaged over ….
chain 1 Q10D was tested, and the screen value was 0.00111 average fractional NGS count over selection days 2 and 3 (reads of this peptide / all reads for the bait, averaged over ….
In the case of chain 1 Q10N, the screen value is reported as 0.000239 average fractional NGS count over selection days 2 and 3 (reads of this peptide / all reads for the bait, averaged over ….
With chain 1 Q12Y the screen value was 0.000541 average fractional NGS count over selection days 2 and 3 (reads of this peptide / all reads for the bait, averaged over ….
For chain 1 Q12M, the screen value was 0.000359 average fractional NGS count over selection days 2 and 3 (reads of this peptide / all reads for the bait, averaged over ….
chain 1 Q12F was tested, and the screen value was 0.000217 average fractional NGS count over selection days 2 and 3 (reads of this peptide / all reads for the bait, averaged over ….
chain 1 Q12H was tested, and the screen value was 0.00103 average fractional NGS count over selection days 2 and 3 (reads of this peptide / all reads for the bait, averaged over ….
chain 1 Q12L was tested, and the screen value was 0.000442 average fractional NGS count over selection days 2 and 3 (reads of this peptide / all reads for the bait, averaged over ….
With chain 1 Q12W the screen value was 0.000131 average fractional NGS count over selection days 2 and 3 (reads of this peptide / all reads for the bait, averaged over ….
In the case of chain 1 Q12I, the screen value is reported as 9.74e-05 average fractional NGS count over selection days 2 and 3 (reads of this peptide / all reads for the bait, averaged over ….
chain 1 Q12A was tested, and the screen value was 0.000321 average fractional NGS count over selection days 2 and 3 (reads of this peptide / all reads for the bait, averaged over ….
For chain 1 L1A, the screen value was 0.00444 average fractional NGS count over selection days 2 and 3 (reads of this peptide / all reads for the bait, averaged over ….
For chain 1 L1G, the screen value was 0.000254 average fractional NGS count over selection days 2 and 3 (reads of this peptide / all reads for the bait, averaged over ….
With chain 1 L1H the screen value was 0.00276 average fractional NGS count over selection days 2 and 3 (reads of this peptide / all reads for the bait, averaged over ….
For chain 1 L1I, the screen value was 0.000531 average fractional NGS count over selection days 2 and 3 (reads of this peptide / all reads for the bait, averaged over ….
For chain 1 L1W, the screen value was 0.000562 average fractional NGS count over selection days 2 and 3 (reads of this peptide / all reads for the bait, averaged over ….
chain 1 L1M was tested, and the screen value was 0.000626 average fractional NGS count over selection days 2 and 3 (reads of this peptide / all reads for the bait, averaged over ….
With chain 1 L1D the screen value was 0.00194 average fractional NGS count over selection days 2 and 3 (reads of this peptide / all reads for the bait, averaged over ….
In the case of chain 1 L1T, the screen value is reported as 0.000919 average fractional NGS count over selection days 2 and 3 (reads of this peptide / all reads for the bait, averaged over ….
chain 1 L1S was tested, and the screen value was 0.000161 average fractional NGS count over selection days 2 and 3 (reads of this peptide / all reads for the bait, averaged over ….
In the case of chain 1 L1Y, the screen value is reported as 0.000392 average fractional NGS count over selection days 2 and 3 (reads of this peptide / all reads for the bait, averaged over ….
chain 1 L1Q was tested, and the screen value was 0.00176 average fractional NGS count over selection days 2 and 3 (reads of this peptide / all reads for the bait, averaged over ….
With chain 1 L1N the screen value was 0.000133 average fractional NGS count over selection days 2 and 3 (reads of this peptide / all reads for the bait, averaged over ….
In the case of chain 1 L1P, the screen value is reported as 0.000936 average fractional NGS count over selection days 2 and 3 (reads of this peptide / all reads for the bait, averaged over ….
In the case of chain 1 L1V, the screen value is reported as 0.00393 average fractional NGS count over selection days 2 and 3 (reads of this peptide / all reads for the bait, averaged over ….
With chain 1 P9T the screen value was 0.000277 average fractional NGS count over selection days 2 and 3 (reads of this peptide / all reads for the bait, averaged over ….
In the case of chain 1 P9A, the screen value is reported as 0.000163 average fractional NGS count over selection days 2 and 3 (reads of this peptide / all reads for the bait, averaged over ….
chain 1 G11T was tested, and the screen value was 0.000177 average fractional NGS count over selection days 2 and 3 (reads of this peptide / all reads for the bait, averaged over ….
In the case of chain 1 Q3P, the screen value is reported as 0.000624 average fractional NGS count over selection days 2 and 3 (reads of this peptide / all reads for the bait, averaged over ….
With chain 1 Q3W the screen value was 0.000779 average fractional NGS count over selection days 2 and 3 (reads of this peptide / all reads for the bait, averaged over ….
chain 1 Q3V was tested, and the screen value was 0.000386 average fractional NGS count over selection days 2 and 3 (reads of this peptide / all reads for the bait, averaged over ….
In the case of chain 1 Q3T, the screen value is reported as 0.000102 average fractional NGS count over selection days 2 and 3 (reads of this peptide / all reads for the bait, averaged over ….
For chain 1 Q3Y, the screen value was 0.000305 average fractional NGS count over selection days 2 and 3 (reads of this peptide / all reads for the bait, averaged over ….
In the case of chain 1 Q3L, the screen value is reported as 0.000335 average fractional NGS count over selection days 2 and 3 (reads of this peptide / all reads for the bait, averaged over ….
With chain 1 Q3A the screen value was 0.0023 average fractional NGS count over selection days 2 and 3 (reads of this peptide / all reads for the bait, averaged over ….
chain 1 Q3H was tested, and the screen value was 0.00741 average fractional NGS count over selection days 2 and 3 (reads of this peptide / all reads for the bait, averaged over ….
For chain 1 Q3G, the screen value was 0.000192 average fractional NGS count over selection days 2 and 3 (reads of this peptide / all reads for the bait, averaged over ….
chain 1 Q3S was tested, and the screen value was 0.000813 average fractional NGS count over selection days 2 and 3 (reads of this peptide / all reads for the bait, averaged over ….
For chain 1 Q3D, the screen value was 0.000274 average fractional NGS count over selection days 2 and 3 (reads of this peptide / all reads for the bait, averaged over ….
In the case of chain 1 Q3F, the screen value is reported as 0.000606 average fractional NGS count over selection days 2 and 3 (reads of this peptide / all reads for the bait, averaged over ….
With chain 1 Q3N the screen value was 0.000319 average fractional NGS count over selection days 2 and 3 (reads of this peptide / all reads for the bait, averaged over ….
With chain 1 H14I the screen value was 0.000314 average fractional NGS count over selection days 2 and 3 (reads of this peptide / all reads for the bait, averaged over ….
chain 1 H14E was tested, and the screen value was 0.000155 average fractional NGS count over selection days 2 and 3 (reads of this peptide / all reads for the bait, averaged over ….
For chain 1 H14L, the screen value was 0.000412 average fractional NGS count over selection days 2 and 3 (reads of this peptide / all reads for the bait, averaged over ….
With chain 1 H14F the screen value was 0.00233 average fractional NGS count over selection days 2 and 3 (reads of this peptide / all reads for the bait, averaged over ….
With chain 1 H14M the screen value was 0.000405 average fractional NGS count over selection days 2 and 3 (reads of this peptide / all reads for the bait, averaged over ….
With chain 1 H14S the screen value was 0.000117 average fractional NGS count over selection days 2 and 3 (reads of this peptide / all reads for the bait, averaged over ….
With chain 1 H14A the screen value was 0.00145 average fractional NGS count over selection days 2 and 3 (reads of this peptide / all reads for the bait, averaged over ….
For chain 1 H14Q, the screen value was 0.000459 average fractional NGS count over selection days 2 and 3 (reads of this peptide / all reads for the bait, averaged over ….
In the case of chain 1 H14N, the screen value is reported as 0.000168 average fractional NGS count over selection days 2 and 3 (reads of this peptide / all reads for the bait, averaged over ….
In the case of chain 1 H14W, the screen value is reported as 0.00121 average fractional NGS count over selection days 2 and 3 (reads of this peptide / all reads for the bait, averaged over ….
chain 1 H14R was tested, and the screen value was 0.00174 average fractional NGS count over selection days 2 and 3 (reads of this peptide / all reads for the bait, averaged over ….
With chain 1 H14V the screen value was 0.00237 average fractional NGS count over selection days 2 and 3 (reads of this peptide / all reads for the bait, averaged over ….

Variants of: B2
Assay: as above
In the case of chain 1 T7W, the screen value is reported as 0.00146 average fractional NGS count over selection days 2 and 3 (reads of this peptide / all reads for the bait, averaged over ….
With chain 1 V2F the screen value was 0.000314 average fractional NGS count over selection days 2 and 3 (reads of this peptide / all reads for the bait, averaged over ….
chain 1 V2Q was tested, and the screen value was 0.000414 average fractional NGS count over selection days 2 and 3 (reads of this peptide / all reads for the bait, averaged over ….
For chain 1 V2G, the screen value was 0.000586 average fractional NGS count over selection days 2 and 3 (reads of this peptide / all reads for the bait, averaged over ….
With chain 1 H16D the screen value was 0.000297 average fractional NGS count over selection days 2 and 3 (reads of this peptide / all reads for the bait, averaged over ….
In the case of chain 1 Q14E, the screen value is reported as 0.000547 average fractional NGS count over selection days 2 and 3 (reads of this peptide / all reads for the bait, averaged over ….

Reference: paper PMC12102759 (2025)
